Read-outs that look alike come from different tables or passages of the source.

The term EC50 denotes the concentration needed to bring the measured effect to its halfway point. In general, Kd refers to a measure of binding affinity in units of concentration.

Experiment [1] concerns the target T1, recombinant human IL-6 (human, UniProt P05231 30-212). Description: cell-based or functional assay.
The target of experiment [2] is T1, recombinant human IL-6. Briefly: ELISA, E. coli derived recombinant human IL-6 as capture reagent; drawn table 'Avg EC50 (pM)', n = 4.
For experiment [3], the target named is T2, endogenous human IL-6 produced by human synovial fibroblasts (human, UniProt P05231 30-212). Briefly: cell-based or functional assay.
Experiment [4] deals with endogenous human IL-6 produced by human synovial fibroblasts (human) (UniProt P05231).
Chain of endogenous human IL-6 produced by human synovial fibroblasts (human) (P05231 30-212): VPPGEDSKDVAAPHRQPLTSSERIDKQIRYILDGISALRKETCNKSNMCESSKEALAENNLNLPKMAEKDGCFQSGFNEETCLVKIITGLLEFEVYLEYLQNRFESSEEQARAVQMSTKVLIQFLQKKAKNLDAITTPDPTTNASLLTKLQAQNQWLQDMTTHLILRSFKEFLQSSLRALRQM
For experiment [5], the target named is T1, recombinant human IL-6. Description: affinity estimated from the TF-1 Cell Proliferation Assay (cell-based, not a direct binding assay); Example 1 summarises WO 2008/065378; estimated from the TF-1 Cell Proliferation Assay, not BIAcore.
The target of experiment [6] is T1, recombinant human IL-6. Briefly: BIAcore; Example 1 summarises WO 2008/065378; BIAcore; bound at the assay's detection level. (In general: SPR reads the build-up and loss of mass on a sensor chip optically.)
The target of a further experiment is T3, cynomolgus FcRn (cynomolgus, UniProt Q8SPV9 24-297; Q8SPW0 21-119, limits assumed).
T3 construct: also called cynoFcRn; cyno FcRn
T3 sequence (Q8SPV9 24-297 limits assumed, chain 1 of 2): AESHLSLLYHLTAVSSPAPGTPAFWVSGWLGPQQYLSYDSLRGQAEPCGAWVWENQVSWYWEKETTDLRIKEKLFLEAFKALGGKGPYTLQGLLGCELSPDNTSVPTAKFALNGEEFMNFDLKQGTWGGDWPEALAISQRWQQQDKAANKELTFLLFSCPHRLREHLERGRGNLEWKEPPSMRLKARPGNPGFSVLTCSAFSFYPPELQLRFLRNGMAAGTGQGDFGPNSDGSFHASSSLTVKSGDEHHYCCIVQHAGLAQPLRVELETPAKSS
T3 sequence (Q8SPW0 21-119 limits assumed, chain 2 of 2): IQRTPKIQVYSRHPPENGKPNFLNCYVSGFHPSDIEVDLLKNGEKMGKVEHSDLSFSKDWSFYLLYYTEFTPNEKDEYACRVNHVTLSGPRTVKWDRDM
Briefly: BIAcore, pH 6.

The next experiment concerns the target T4, human FcRn (human, UniProt P55899 24-297; P61769 21-119, limits assumed).
T4 construct: also called huFcRn
Description: BIAcore, pH 6.

Experiment [7] concerns the target T1, recombinant human IL-6. Description: ELISA, E. coli expressed rhuIL-6 as capture reagent. Background: An ELISA detects its analyte on a solid surface through an enzyme-linked reagent.
Description: ELISA assays were performed according to standard protocols.
The target in experiment [8] is endogenous human IL-6 produced by human synovial fibroblasts (human) (UniProt P05231). Briefly: cell-based or functional assay.
Experiment [9] concerns the target T1, recombinant human IL-6. Description: cell-based or functional assay. The source holds these as a separate data set.
Experiment [10] concerns the target T2, endogenous human IL-6 produced by human …. Description: cell-based or functional assay. The source holds these as a separate data set.

T4 sequence (P55899 24-297 limits assumed, chain 1 of 2): as the sequence (Q8SPV9 24-297 limits assumed, chain 1 of 2) above, with D39N, Q44E, S99G, G189S, N190S, M217L, T269S counted along it
T4 sequence (P61769 21-119 limits assumed, chain 2 of 2): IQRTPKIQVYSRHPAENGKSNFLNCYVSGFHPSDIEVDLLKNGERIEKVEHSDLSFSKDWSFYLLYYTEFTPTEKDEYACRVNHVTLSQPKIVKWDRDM

B1: IL-6 antibody A (antibody, V domains shown)
VH: QEQLVESGGGLVQPEGSLTLTCIASGWSFSSSHYMCWVRQAPGKGLEWIGCIYTGSGMTYYASWAKGRFTISKTSSTTVTLQMTSLTAADTATYFCARKIGGTDDYGDSLYFSLWGQGTLVTVSS
VL: AQVLTQTPSPVSAAVGGTVTINCQASQSVYNNSKLAWYQQKPGQPPKLLIYKASSLASGVSSRFKGSGSGTQFTLTISGVQCDDAATYYCQHEFSCSSADCVAFGGGTEVVVKG
For the molecule B1, in the experiment with recombinant human IL-6 [1], the “IC50, inhibition of IL-6 induced TF-1 cell proliferation” value was determined as 5.9 pM. Besides, the EC50 with recombinant human IL-6 [2] stood at 0.0078 nM. Moreover, the “IC50, inhibition of endogenous IL-6 induced VEGF release from human synovial fibroblasts” value in [3] was determined as 2.8 nM.

B2: IL-6 antibody B (antibody, V domains shown)
VH: QSVEESGGRLVTPGTPLTLTCTVSGFSLSAYDMYWVRQAPGKGLEWIGITYGSGKTYYARWAKGRFTISKTSTTVALKITSPTTEDTATYFCARDSGYPGGSSAYNLWGQGTLVTVSS
VL: AAVLTQTPSAVSAAVGGTVTISCQSSQSVTVNNDLAWYQQRPGQPPKLLIYRASNLASRVPSRFSGSGSGTQFTLTISGVQCDDAATYYCLGGYDDDASNAFGGGTEVVVKG
In the case of B2, in the experiment with recombinant human IL-6 [1], the “IC50, inhibition of IL-6 induced TF-1 cell proliferation” value came out at 78.1 pM. Moreover, the EC50 with recombinant human IL-6 [2] stood at 0.0141 nM. The “IC50, inhibition of endogenous IL-6 induced VEGF release from human synovial fibroblasts” value in experiment [3] was 2.2 nM.

B3: Antibody 18 (antibody, V domains shown)
VH: EVQLVESGGGLVQPGGSLRLSCAASGFTISSNYMIWVRQAPGKGLEWVSDLYYYAGDTYYADSVKGRFTMSRDISKNTVYLQMNSLRAEDTAVYYCARWADDHPPWIDLWGRGTLVTVSS
VL: DIQMTQSPSTLSASVGDRVTITCRASQGISSWLAWYQQKPGKAPKVLIYKASTLESGVPSRFSGSGSGTEFTLTISSLQPDDFATYYCQQSWLGGSFGQGTKLEIK
notes: Human anti-IL-6 IgG1 with a wild type Fc region; It is the parent of Antibody 18E; also called Ab 18
Consider B3, for which the IC50, inhibition of endogenous IL-6 induced VEGF release from human synovial fibroblasts was found to be 1.3 nM in experiment [4] and 1.3 pM in experiment [8]. The Kd with recombinant human IL-6 [5] is 0.4 pM; with recombinant human IL-6 [6] it was less than 0.01 nM; with cynomolgus FcRn, 1160 nM; with human FcRn, 2610 nM. Moreover, in the experiment with recombinant human IL-6 [7], the EC50 came to 6.1 pM. Moreover, the “IC50, inhibition of IL-6 induced TF-1 cell proliferation” value with recombinant human IL-6 [9] stood at 4.5 pM.

B4: Antibody 18E (antibody, human IgG1, kappa)
heavy: EVQLVESGGGLVQPGGSLRLSCAASGFTISSNYMIWVRQAPGKGLEWVSDLYYYAGDTYYADSVKGRFTMSRDISKNTVYLQMNSLRAEDTAVYYCARWADDHPPWIDLWGRGTLVTVSSASTKGPSVFPLAPSSKSTSGGTAALGCLVKDYFPEPVTVSWNSGALTSGVHTFPAVLQSSGLYSLSSVVTVPSSSLGTQTYICNVNHKPSNTKVDKRVEPKSCDKTHTCPPCPAPELLGGPSVFLFPPKPKDTLYITREPEVTCVVVDVSHEDPEVKFNWYVDGVEVHNAKTKPREEQYNSTYRVVSVLTVLHQDWLNGKEYKCKVSNKALPAPIEKTISKAKGQPREPQVYTLPPSREEMTKNQVSLTCLVKGFYPSDIAVEWESNGQPENNYKTTPPVLDSDGSFFLYSKLTVDKSRWQQGNVFSCSVMHEALHNHYTQKSLSLSPGK
light: DIQMTQSPSTLSASVGDRVTITCRASQGISSWLAWYQQKPGKAPKVLIYKASTLESGVPSRFSGSGSGTEFTLTISSLQPDDFATYYCQQSWLGGSFGQGTKLEIKRTVAAPSVFIFPPSDEQLKSGTASVVCLLNNFYPREAKVQWKVDNALQSGNSQESVTEQDSKDSTYSLSSTLTLSKADYEKHKVYACEVTHQGLSSPVTKSFNRGEC
notes: Antibody 18 with the M252Y, S254T and T256E substitutions (EU index) in the IgG1 Fc region; Expressed in CHO-K1 cells; also called Ab 18E
For B4, the Kd in the experiment with cynomolgus FcRn is 365 nM; with human FcRn it was 226 nM. In addition, the results for the “IC50, inhibition of endogenous IL-6 induced VEGF release from human synovial fibroblasts” value in experiment [3] and in [10] were 0.0012 nM and 1.2 pM, respectively. The EC50 with recombinant human IL-6 [7] was 6.5 pM. Also, the “IC50, inhibition of IL-6 induced TF-1 cell proliferation” value in the experiment with recombinant human IL-6 [9] is 5.2 pM.

The record behind these values is patent US20120034212A1 (AstraZeneca / MedImmune, published 2012).
